Experimental data taken from JPH06217786A.

Molecular target: FHV−1-K1ウイルス粒子 (feline herpesvirus-1, strain K1, virus particles; crude ammonium sulfate precipitate)
Test: cell-based or functional assay

B1: 抗FHV−1キメラ抗体FH2 (cat-type anti-FHV-1 chimeric antibody FH2) (antibody, part only; not given: cat constant regions, part only)
heavy, part: QVTLKESGPGILQPSQTLSLTCSFSGFSLSTSGMGAGWIRQPSGKGLEWLAHIWWDDVKRYNPALKSRLTISKDTSSSQVFLKIASVDTADTATYFCVRSQIYFDYDGAWFPFWGQGTLVTVSA
light, part: DIVLTQSPATLSVTPGDSVSLSCRASQSISNNLHWYQQKSHESPRLLIKYASQSISGIPSRFSGSGSGTDFTLSINSVETEDFGMYFCQQSNSWPHTFGAGTKLELK
- 最低有効中和濃度 (lowest effective neutralising concentration; 100 TCID50 FHV-1, CPE on CRFK cells): 1.95 µg/mL
